Patent publication US20190367592A1 (AC IMMUNE, published 2019)
Numbering of substitutions follows the chain as printed.

Assays:
[1] = molecular target: T1, full-length human Tau (flTau) (human, UniProt P10636-8 1-441); experiment: SPR, hybridoma Ab on anti-IgG chip, flTau analyte
T1 construct: range 1-441; bought (SignalChem); also called human Tau-441
Protocol: Affinity of non-purified antibodies in serum-free hybridoma supernatants was estimated by surface plasmon resonance using a Biacore T-100 instrument (GE Healthcare, United Kingdom). Antibodies were immobilized onto an anti-IgG biosensor chip, and flTau (SignalChem, Canada) was used as the target analyte. Kinetic analysis was done using a 1:1 Langmuir fit model.
For affinity measurements to flTau, antibodies were measured using SPR on a Biacore instrument, with the KDs determined. Biacore affinity measurements were done by immobilizing antibodies on an anti-IgG chip and using flTau as the target analyte.

[2] = molecular target: T2, recombinant human Tau monomer, 2N4R isoform (amino acids 2-441) (human, UniProt P10636-8 2-441); experiment: SPR, mIgG2a captured, Tau monomer analyte, 1:1 fit
T2 construct: range 2-441; N-terminal His-tag removed with TEV protease; also called monomeric Tau
T2 sequence (P10636 other isoform, or with tags, fused parts or gaps limits assumed): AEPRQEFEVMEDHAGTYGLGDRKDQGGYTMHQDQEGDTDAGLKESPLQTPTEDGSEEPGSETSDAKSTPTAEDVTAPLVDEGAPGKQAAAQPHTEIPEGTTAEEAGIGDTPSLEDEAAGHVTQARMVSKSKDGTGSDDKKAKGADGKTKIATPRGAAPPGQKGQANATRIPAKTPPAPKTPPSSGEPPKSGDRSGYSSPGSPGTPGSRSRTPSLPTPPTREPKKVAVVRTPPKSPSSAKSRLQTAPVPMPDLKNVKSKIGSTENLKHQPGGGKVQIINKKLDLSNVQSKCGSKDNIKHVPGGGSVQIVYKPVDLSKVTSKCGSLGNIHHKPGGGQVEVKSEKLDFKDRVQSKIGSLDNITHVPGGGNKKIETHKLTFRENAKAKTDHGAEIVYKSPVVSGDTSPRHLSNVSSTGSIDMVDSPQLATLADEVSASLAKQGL
Text: Antibody heavy and light chains were constructed via gene synthesis and subcloning of the resulting DNA into murine IgG2a (heavy chain) and murine kappa (light chain) mammalian expression vectors. Antibodies were expressed in CHO or 293T cells by transient co-transfection of the heavy chain and light chain plasmids and were purified with affinity resin MabSelectSure (GE Healthcare Life Sciences). Purified recombinant antibodies were screened for binding to Tau monomer protein on a Biacore T200 surface plasmon resonance instrument using a mouse IgG capture kit and a Series S CM5 chip. Antibodies in mIgG2a format diluted in 10 mM HEPES pH7.4, 150 mM NaCl, 0.05% Tween 20 (running buffer, HBSP) were captured for 30 or 45 seconds at a concentration of 1 μg/ml (antibodies 26C1, 94B2-C1, 52F6-F11.v1, 52F6-F11.v2, 11E10-B8, 55E7-F11, 125B1-H3, 123E9-A1, 30G1-B2, 66F5-A1, 89F4-A1, 93A8-D2 and 126F11-G11) or for 70 or 150 seconds at a concentration of 0.1 μg/ml (antibodies 19H6-F7, 3A4-H4, 54C1-H11 and 37D3-H9) using a flow rate of 10 μl/min. […] Association and dissociation times were monitored for 180-480 seconds and for 300-600 seconds respectively. Antibody 37D3-H9 was selected for further analysis due to the high affinity (Table 6) and the absence of NXS/T glycosylation motifs in the CDRs.

[3] = molecular target: T2, recombinant human Tau monomer, 2N4R …; experiment: SPR screen, hIgG captured, Tau monomer analyte
Text: Antibody 125B11-H3 was humanized onto VH3 and Vκ1 consensus frameworks. The heavy chain graft included murine residues at position 78 (Kabat numbering system). The Vκ1 graft included murine residues in framework positions 43 and 87. The light chain of 113F5-F7 was also humanized onto the Vκ1 framework, with additional murine residues at framework positions 43 and 87. Humanized variant heavy chains (125B11) and light chains (125B11 and 113F5-F7) were co-transfected in multiple combinations and purified in 96-well format as described above. Humanized variants were then screened for affinity for human Tau monomer using the Biacore human IgG capture kit, a Series S CM5 chip and a Biacore T200 instrument. Antibodies were diluted to 2 μg/ml and captured for 15 seconds at 10 μl/min. Association and dissociation of 0, 100 and 500 nM human Tau monomer in HBSP was monitored for 180s and 300s respectively at a flow rate of 40 μl/min. A 1:1 binding model was applied to the results (Table 9).
Variants hu125B11.v17 (HC3+LC1), hu125B11.v26 (HC4+LC2) and hu125B 11.v28 (HC4+LC4) were selected for high-resolution kinetic analysis based on the affinity screen (Table 10). Antibody 94B2-C1 was humanized onto VH1 and Vx2 frameworks. The heavy chain graft also included murine residues at position 28, 29, 67, 69, 71, and 73 (Kabat numbering system). The Vκ2 graft also included murine residues in framework positions 2, 36, and 46. […] Variant hu94B2.v105 (heavy chain variant 94B2.HCl, light chain variant 94B2.LC13) was selected for detailed SPR characterization (Table 11).

T1 sequence (P10636 other isoform, or with tags, fused parts or gaps limits assumed): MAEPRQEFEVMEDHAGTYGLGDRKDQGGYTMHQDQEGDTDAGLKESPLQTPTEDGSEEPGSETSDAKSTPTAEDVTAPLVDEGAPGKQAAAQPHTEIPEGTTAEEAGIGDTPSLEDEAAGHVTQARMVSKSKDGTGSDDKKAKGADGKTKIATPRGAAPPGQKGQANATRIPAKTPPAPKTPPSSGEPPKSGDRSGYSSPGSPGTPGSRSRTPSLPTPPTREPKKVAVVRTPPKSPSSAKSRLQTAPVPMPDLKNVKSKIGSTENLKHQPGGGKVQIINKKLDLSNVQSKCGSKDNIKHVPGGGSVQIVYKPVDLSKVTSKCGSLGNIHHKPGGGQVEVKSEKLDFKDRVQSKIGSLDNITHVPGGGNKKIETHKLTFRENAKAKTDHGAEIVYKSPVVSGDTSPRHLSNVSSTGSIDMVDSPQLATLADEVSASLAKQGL

B1: 125B11-H3 (antibody, mouse IgG2a, V domains shown)
VH: EVKLEESGGGLVQPGGSMKLSCVASRFIFSNYWMNWVRQSPEKGLEWVAQIRLKSDNYATHYAESVKGRFTISRDDSKSSVYLQMNNLRAEDTGIYYCTGGTTYWGQGTTLTVSS
VL: DIVMTQSQKFLSTSVGDRVNITCKASQNVGTAVAWYQQKPGQSPGLLIYSASIRYTGVPDRFTGNGSGTDFTLTISDMQSEDLADYFCQQFRTYPYTFGGGTKLEIK
notes: also called 125B1-H3
Kd [1]: 6 nM
Kd [2]: 5 nM
koff [2]: 0.0003 s⁻¹
kon [2]: 50000 M⁻¹ s⁻¹

B2: hu94B2 HC3 + LC11 (antibody, V domains shown)
VH: EVQLVQSGAEVKKPGASVKVSCKASGYSLTGYTMNWVRQAPGQGLEWIGLISPYNGVTSYNQKFKGRATITVDKSTSTAYLELSSLRSEDTAVYYCARQGAYWGQGTLVTVSS
VL: DVVMTQTPLSLPVTPGQPASISCKSSQSLLDSDGKTYLNWYLQKPGQSPQRLIYLVSKLDSGVPDRFSGSGSGTDFTLKISRVEAEDVGVYYCWQGTHFPWTFGQGTKVEIK
Kd [3]: 69.3 nM

B3: hu94B2 HC5 + LC9 (antibody, V domains shown)
VH: B2 VH with I70L, K74T
VL: B2 VL with Y41L
Kd [3]: 2.7 nM

B4: hu94B2 HC6 + LC15 (antibody, V domains shown)
VH: B2 VH with A68V
VL: B2 VL with V2I
Kd [3]: 74.1 nM

B5: hu94B2 HC6 + LC13 (antibody, V domains shown)
VH: B2 VH with A68V
VL: B2 VL with V2I, Y41L
Kd [3]: 3 nM

B6: hu94B2 HC6 + LC11 (antibody, V domains shown)
VH: B2 VH with A68V
VL: B2 VL
Kd [3]: 70.1 nM

B7: hu94B2 HC8 + LC11 (antibody, V domains shown)
VH: B2 VH with A68V, K74T
VL: B2 VL
Kd [3]: 44.3 nM

B8: hu94B2 HC4 + LC9 (antibody, V domains shown)
VH: B2 VH with I70L, V72R
VL: B2 VL with Y41L
Kd [3]: 61.9 nM

B9: hu94B2 HC3 + LC9 (antibody, V domains shown)
VH: B2 VH
VL: B2 VL with Y41L
Kd [3]: 2 nM

B10: hu94B2 HC2 + LC11 (antibody, V domains shown)
VH: B2 VH with A68V, I70L
VL: B2 VL
Kd [3]: 89.6 nM

B11: hu94B2 HC4 + LC13 (antibody, V domains shown)
VH: B2 VH with I70L, V72R
VL: B2 VL with V2I, Y41L
Kd [3]: 64.1 nM

B12: hu94B2 HC8 + LC15 (antibody, V domains shown)
VH: B2 VH with A68V, K74T
VL: B2 VL with V2I
Kd [3]: 51.5 nM

B13: hu94B2 HC2 + LC15 (antibody, V domains shown)
VH: B2 VH with A68V, I70L
VL: B2 VL with V2I
Kd [3]: 99.6 nM

B14: hu94B2 HC8 + LC13 (antibody, V domains shown)
VH: B2 VH with A68V, K74T
VL: B2 VL with V2I, Y41L
Kd [3]: 2.4 nM

B15: hu94B2 HC5 + LC15 (antibody, V domains shown)
VH: B2 VH with I70L, K74T
VL: B2 VL with V2I
Kd [3]: 72.6 nM

B16: hu94B2 HC3 + LC15 (antibody, V domains shown)
VH: B2 VH
VL: B2 VL with V2I
Kd [3]: 64.1 nM

B17: hu94B2 HC5 + LC11 (antibody, V domains shown)
VH: B2 VH with I70L, K74T
VL: B2 VL
Kd [3]: 62.6 nM

B18: hu94B2 HC7 + LC9 (antibody, V domains shown)
VH: B2 VH with A68V, V72R
VL: B2 VL with Y41L
Kd [3]: 52.9 nM

B19: hu94B2 HC2 + LC13 (antibody, V domains shown)
VH: B2 VH with A68V, I70L
VL: B2 VL with V2I, Y41L
Kd [3]: 7.4 nM

B20: hu94B2 HC1 + LC11 (antibody, V domains shown)
VH: B2 VH with I70L
VL: B2 VL
Kd [3]: 91.5 nM

B21: hu94B2 HC3 + LC13 (antibody, V domains shown)
VH: B2 VH
VL: B2 VL with V2I, Y41L
Kd [3]: 3.8 nM

B22: hu94B2 HC8 + LC9 (antibody, V domains shown)
VH: B2 VH with A68V, K74T
VL: B2 VL with Y41L
Kd [3]: 1 nM

B23: hu94B2 HC1 + LC15 (antibody, V domains shown)
VH: B2 VH with I70L
VL: B2 VL with V2I
Kd [3]: 104 nM

B24: hu94B2 HC2 + LC9 (antibody, V domains shown)
VH: B2 VH with A68V, I70L
VL: B2 VL with Y41L
Kd [3]: 5.7 nM

B25: hu94B2 HC5 + LC13 (antibody, V domains shown)
VH: B2 VH with I70L, K74T
VL: B2 VL with V2I, Y41L
Kd [3]: 4 nM

B26: hu94B2 HC7 + LC13 (antibody, V domains shown)
VH: B2 VH with A68V, V72R
VL: B2 VL with V2I, Y41L
Kd [3]: 57.8 nM

B27: hu94B2 HC6 + LC9 (antibody, V domains shown)
VH: B2 VH with A68V
VL: B2 VL with Y41L
Kd [3]: 0.9 nM

B28: 126F11-G11 (antibody, mouse IgG2a, V domains shown)
VH: EVQLQQSGAELVRPGASVKLSCTASGFNIKDDYMHWVKQRPEQGLEWIGWIDPENGDTEYASKFQGKATITTDTSSNTAYLQLSSLTSEDTAVYYCLDFAYGYWGQGTTLTVSS
VL: DVLMTQTPLSLPVSLGDQASISCRSSQSIVHSNGNTYLEWYLQKPGQSPKLLIYKVSNRFSGVPDRFSGSGSGTDFTLKISRVEAEDLGVYYCFQGSHVPPAFGGGTKLEIK
Kd [1]: 4.2 nM
Kd [2]: 3 nM
koff [2]: 0.004 s⁻¹
kon [2]: 2e+06 M⁻¹ s⁻¹

B29: 93A8-D2 (antibody, mouse IgG2a, V domains shown)
VH: EVQLQQSGPVLVKPGASVKMSCKASGYTFTDYYVNWVKQSHGKGLEWIGLINPNNGRTSYNQNFNDKATLTVDKSSSTAFMDLNSLTSEDSAVYYCTREGGTGYWGQGTTLSVSS
VL: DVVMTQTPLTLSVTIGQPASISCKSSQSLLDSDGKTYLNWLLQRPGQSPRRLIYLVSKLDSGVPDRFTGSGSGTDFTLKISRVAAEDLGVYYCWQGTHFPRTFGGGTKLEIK
Kd [1]: 4.3 nM
Kd [2]: 6 nM
koff [2]: 0.002 s⁻¹
kon [2]: 300000 M⁻¹ s⁻¹
